Assays:
[1] = target: T1, Human IgG1 (human, UniProt P01857-1 1-330 = IgG part); assay: SPR, IgG-Fc-16 immobilised, IgG 50 µg/ml
T1 construct: purified IgG of this subclass; also called HuIgG1
Experimental: (§1) Broad binding reactivity of VHH fragment IgG-Fc-16 was determined using surface plasmon resonance analysis (SPR) on a BiaCore 3000. For this purpose, purified VHH fragment IgG-Fc-16 was immobilised onto the surface of a CM5 sensor chip and subsequently incubated with purified IgG antibodies (50 μg/ml) from different species in HBS-EP buffer. Binding was allowed for 1 minute at 5 μl/min followed by a dissociation step of 2.5 minutes at 5 μl/min. Binding signals (Resonance Units) were compared to background signals measured with HBS-EP buffer only. For comparison, the relative reactivity of Protein A and G towards different IgG species is also given.

[2] = target: T2, Human IgG2 (human, UniProt P01859-1 1-326 = IgG part); assay: SPR, IgG-Fc-16 immobilised, IgG 50 µg/ml
T2 construct: purified IgG of this subclass; also called HuIgG2
Experimental: as §1

[3] = target: T3, Human IgG3 (human, UniProt P01860-1 1-377); assay: SPR, IgG-Fc-16 immobilised, IgG 50 µg/ml
T3 construct: purified IgG of this subclass; also called HuIgG3
Experimental: as §1

[4] = target: T4, Human IgG4 (human, UniProt P01861-1 1-327 = IgG part); assay: SPR, IgG-Fc-16 immobilised, IgG 50 µg/ml
T4 construct: purified IgG of this subclass; also called HuIgG4
Experimental: as §1

[5] = target: T5, Rat IgG1a (rat, UniProt P20759 1-326); assay: SPR, IgG-Fc-16 immobilised, IgG 50 µg/ml
T5 construct: label 'IgG1a' as printed
Experimental: as §1

[6] = target: Rat IgG2a (rat, UniProt P20760 1-322); assay: SPR, IgG-Fc-16 immobilised, IgG 50 µg/ml
Experimental: as §1

[7] = target: Rat IgG2b (rat, UniProt P20761 1-333); assay: SPR, IgG-Fc-16 immobilised, IgG 50 µg/ml
Experimental: as §1

[8] = target: Rat IgG2c (rat, UniProt P20762 1-329); assay: SPR, IgG-Fc-16 immobilised, IgG 50 µg/ml
Experimental: as §1

[9] = target: Mouse IgG 1 (mouse, UniProt P01868 1-324 = IgG part); assay: SPR, IgG-Fc-16 immobilised, IgG 50 µg/ml
Experimental: as §1

[10] = target: Mouse IgG2a (mouse, UniProt P01863 1-330 = IgG part); assay: SPR, IgG-Fc-16 immobilised, IgG 50 µg/ml
Experimental: as §1

[11] = target: T6, Guinea IgG (guinea pig); assay: SPR, IgG-Fc-16 immobilised, IgG 50 µg/ml
T6 construct: printed 'Guinea IgG'; also called guinea pig IgG
Experimental: as §1

[12] = target: Chicken IgG (chicken); assay: SPR, IgG-Fc-16 immobilised, IgG 50 µg/ml
Experimental: as §1

[13] = target: T1, Human IgG1; assay: SPR, VHH immobilised, IgG as analyte, 1:1 Langmuir
Experimental: (§2) Binding affinity constants of anti IgG-Fc VHH fragments were determined using surface plasmon resonance analysis (SPR) on a BiaCore 3000. For this purpose, purified VHH fragments were immobilised onto the surface of a CM5 sensor chip and subsequently incubated with different concentrations of purified IgG antibodies in HBS-EP buffer. Binding was allowed for 3 minutes at 30 μl/min followed by a dissociation step of 15 minutes at 30 μl/min. Binding curves were fitted according to a 1:1 Langmuir binding model using Biacore software.

[14] = target: T2, Human IgG2; assay: SPR, VHH immobilised, IgG as analyte, 1:1 Langmuir
Experimental: as §2

[15] = target: T3, Human IgG3; assay: SPR, VHH immobilised, IgG as analyte, 1:1 Langmuir
Experimental: as §2

[16] = target: T4, Human IgG4; assay: SPR, VHH immobilised, IgG as analyte, 1:1 Langmuir
Experimental: as §2

[17] = target: T7, Human IgG, Fc fragment (human); assay: method not given
T7 construct: domain: Fc; the ELISA plates were coated with 'antibody antigens', so whole IgG may have stood there; also called human IgG-Fc domain; IgG Fc domain species: human

T1 sequence (P01857 other isoform, or with tags, fused parts or gaps): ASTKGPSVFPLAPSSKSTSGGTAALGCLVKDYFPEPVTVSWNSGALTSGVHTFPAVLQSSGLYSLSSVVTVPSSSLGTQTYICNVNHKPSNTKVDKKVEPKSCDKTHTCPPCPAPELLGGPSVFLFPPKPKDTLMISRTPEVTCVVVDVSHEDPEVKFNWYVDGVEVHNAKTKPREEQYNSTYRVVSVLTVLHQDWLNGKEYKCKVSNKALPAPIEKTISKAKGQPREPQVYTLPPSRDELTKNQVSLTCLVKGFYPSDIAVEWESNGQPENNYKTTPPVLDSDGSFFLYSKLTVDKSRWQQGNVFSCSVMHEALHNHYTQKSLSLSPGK
T3 sequence (P01860 other isoform, or with tags, fused parts or gaps): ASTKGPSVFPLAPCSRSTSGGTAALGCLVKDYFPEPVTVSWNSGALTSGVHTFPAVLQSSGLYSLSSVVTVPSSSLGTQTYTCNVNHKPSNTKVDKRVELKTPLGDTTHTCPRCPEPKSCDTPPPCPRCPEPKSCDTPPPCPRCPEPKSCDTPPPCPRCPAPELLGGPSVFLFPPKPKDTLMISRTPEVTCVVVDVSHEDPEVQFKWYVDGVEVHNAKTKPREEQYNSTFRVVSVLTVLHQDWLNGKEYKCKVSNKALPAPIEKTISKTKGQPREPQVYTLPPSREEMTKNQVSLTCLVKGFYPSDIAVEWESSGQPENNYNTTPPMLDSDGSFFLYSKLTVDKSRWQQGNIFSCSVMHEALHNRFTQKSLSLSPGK
T4 sequence (P01861 other isoform, or with tags, fused parts or gaps): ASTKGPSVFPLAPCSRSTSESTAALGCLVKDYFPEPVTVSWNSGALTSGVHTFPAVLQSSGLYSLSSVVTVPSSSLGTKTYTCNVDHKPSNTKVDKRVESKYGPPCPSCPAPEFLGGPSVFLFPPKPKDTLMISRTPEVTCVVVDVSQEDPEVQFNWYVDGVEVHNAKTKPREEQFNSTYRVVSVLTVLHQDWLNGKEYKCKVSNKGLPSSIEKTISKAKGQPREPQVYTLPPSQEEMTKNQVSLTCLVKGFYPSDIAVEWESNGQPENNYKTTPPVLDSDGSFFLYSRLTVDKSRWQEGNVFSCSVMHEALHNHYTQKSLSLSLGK
T2 sequence (P01859 other isoform, or with tags, fused parts or gaps): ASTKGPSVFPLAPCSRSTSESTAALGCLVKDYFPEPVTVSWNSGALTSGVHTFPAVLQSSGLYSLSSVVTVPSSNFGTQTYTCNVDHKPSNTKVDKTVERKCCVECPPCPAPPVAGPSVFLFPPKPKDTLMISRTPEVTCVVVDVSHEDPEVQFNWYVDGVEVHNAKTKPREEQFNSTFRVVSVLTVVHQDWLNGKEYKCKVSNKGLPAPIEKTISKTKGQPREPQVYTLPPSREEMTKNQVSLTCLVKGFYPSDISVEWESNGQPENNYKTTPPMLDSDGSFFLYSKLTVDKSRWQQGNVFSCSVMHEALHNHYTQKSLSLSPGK
T5 sequence (P20759 whole entry): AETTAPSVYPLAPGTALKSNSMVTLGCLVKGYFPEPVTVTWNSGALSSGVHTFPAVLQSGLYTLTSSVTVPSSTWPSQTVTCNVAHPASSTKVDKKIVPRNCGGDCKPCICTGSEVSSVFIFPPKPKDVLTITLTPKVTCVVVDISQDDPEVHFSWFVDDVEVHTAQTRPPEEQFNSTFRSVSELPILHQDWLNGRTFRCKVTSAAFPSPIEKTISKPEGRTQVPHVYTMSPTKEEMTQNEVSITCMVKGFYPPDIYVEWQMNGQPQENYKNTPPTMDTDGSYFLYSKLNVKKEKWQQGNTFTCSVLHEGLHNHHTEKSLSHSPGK
Chain of Mouse IgG2a (P01863 whole entry): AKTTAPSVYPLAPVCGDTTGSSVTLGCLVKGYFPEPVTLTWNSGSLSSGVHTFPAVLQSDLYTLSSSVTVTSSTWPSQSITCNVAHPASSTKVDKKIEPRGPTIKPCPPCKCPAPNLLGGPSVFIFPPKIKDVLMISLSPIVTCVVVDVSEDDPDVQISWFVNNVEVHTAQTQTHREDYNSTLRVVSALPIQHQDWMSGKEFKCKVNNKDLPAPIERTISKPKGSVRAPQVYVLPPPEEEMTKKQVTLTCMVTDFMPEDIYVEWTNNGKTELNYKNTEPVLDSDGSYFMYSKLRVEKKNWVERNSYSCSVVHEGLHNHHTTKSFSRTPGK
Chain of Rat IgG2b (P20761 whole entry): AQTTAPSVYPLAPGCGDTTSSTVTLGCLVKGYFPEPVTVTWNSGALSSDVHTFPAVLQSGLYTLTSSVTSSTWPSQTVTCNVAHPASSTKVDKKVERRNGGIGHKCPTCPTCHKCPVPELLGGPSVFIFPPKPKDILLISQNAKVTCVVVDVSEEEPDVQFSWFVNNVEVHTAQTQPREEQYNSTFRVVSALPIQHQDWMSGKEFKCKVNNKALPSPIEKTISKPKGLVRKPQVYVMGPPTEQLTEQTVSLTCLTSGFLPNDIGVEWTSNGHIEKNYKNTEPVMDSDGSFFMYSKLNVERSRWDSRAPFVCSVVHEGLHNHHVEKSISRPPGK
Chain of Rat IgG2a (P20760 whole entry): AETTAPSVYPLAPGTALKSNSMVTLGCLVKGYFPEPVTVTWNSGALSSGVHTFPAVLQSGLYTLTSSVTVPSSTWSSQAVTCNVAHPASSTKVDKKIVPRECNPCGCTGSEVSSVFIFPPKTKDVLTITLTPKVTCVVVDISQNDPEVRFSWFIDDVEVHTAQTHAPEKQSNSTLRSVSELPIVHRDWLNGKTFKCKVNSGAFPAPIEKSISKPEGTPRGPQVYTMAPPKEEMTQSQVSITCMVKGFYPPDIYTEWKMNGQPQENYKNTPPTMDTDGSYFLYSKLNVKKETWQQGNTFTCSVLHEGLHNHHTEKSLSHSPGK
Chain of Rat IgG2c (P20762 whole entry): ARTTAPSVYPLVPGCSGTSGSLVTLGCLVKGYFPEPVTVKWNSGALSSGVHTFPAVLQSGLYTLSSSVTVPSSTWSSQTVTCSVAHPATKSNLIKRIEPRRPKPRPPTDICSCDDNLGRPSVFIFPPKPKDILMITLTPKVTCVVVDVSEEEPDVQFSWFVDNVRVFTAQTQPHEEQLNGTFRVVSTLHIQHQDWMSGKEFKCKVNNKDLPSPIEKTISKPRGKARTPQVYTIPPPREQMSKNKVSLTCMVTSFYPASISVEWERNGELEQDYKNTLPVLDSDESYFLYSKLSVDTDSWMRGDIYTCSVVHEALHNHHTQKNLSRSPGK

Row | Ka [13] | Kd [13] | koff [13] | kon [13] | Ka [14] | Kd [14] | koff [14] | kon [14] | Ka [15] | Kd [15] | koff [15] | kon [15] | Ka [16] | Kd [16] | koff [16] | kon [16] | Binder | also measured
1 | 1.47e+08 M⁻¹ | 6.81 nM | 0.000211 s⁻¹ | 31000 M⁻¹ s⁻¹ | 6.17e+07 M⁻¹ | 16.2 nM | 0.000355 s⁻¹ | 21900 M⁻¹ s⁻¹ | 4.69e+07 M⁻¹ | 21.3 nM | 0.000849 s⁻¹ | 39800 M⁻¹ s⁻¹ | 5.89e+08 M⁻¹ | 1.7 nM | 0.000107 s⁻¹ | 62900 M⁻¹ s⁻¹ | IgG-Fc-16 (VHH) VHH: QVQLQESGGGLVQAGGSLRLSCAASGRAVGNYIIGWFRQAPGKEREFVATTTRDGGSTFYADSVKGRFTISRDNAKNTVNLQMNSLEPEDTAVYYCAAKSWSVPLRPTSADFDSWGQGTQVTVSS | Binding signal (RU) [1]: 1570 RU; Binding signal (RU) [2]: 795 RU; Binding signal (RU) [3]: 499 RU; Binding signal (RU) [4]: 710 RU; Binding signal (RU) [5]: 431 RU; Binding signal (RU) [6]: 444 RU; Binding signal (RU) [7]: 512 RU; Binding signal (RU) [8]: 2130 RU; Binding signal (RU) [9]: 1610 RU; Binding signal (RU) [10]: 427 RU; Binding signal (RU) [11]: 577 RU; Binding signal (RU) [12]: -3.1 RU
2 | 1.74e+09 M⁻¹ | 0.575 nM | 0.000208 s⁻¹ | 361000 M⁻¹ s⁻¹ | 5.76e+08 M⁻¹ | 1.73 nM | 0.000212 s⁻¹ | 122000 M⁻¹ s⁻¹ | 2.09e+07 M⁻¹ | 47.8 nM | 0.000272 s⁻¹ | 5690 M⁻¹ s⁻¹ | 3.32e+09 M⁻¹ | 0.302 nM | 5.91e-05 s⁻¹ | 196000 M⁻¹ s⁻¹ | IgG-Fc-01 (VHH, also called IgG-Fc-1) VHH: QVQLQESGGGLVQPGGSLRLSCAASGGTSIRIGSINALAWYRQALGNQRELVAAVTEGGSTNYADFVKGRFTISRDNAQNMMYLQMNSLKPEDTAVYYCNADKVLYSRGGYYSVANDLWGQGTQVTVSS | 
3 |  |  |  |  |  |  |  |  |  |  |  |  |  |  |  |  | IgG-Fc-10 (VHH) VHH: QVQLQESGGGLVQAGDSLRISCRASGLTVNDLYMGWFRQAPGKEREFVGRVTPGDNTDYTYYVDSVKGRFTISRDSAKNTVYLQMNSLKLEDTAVYLCAGRRFGSSEWDYWGQGTQVTVSS | Ka [17]: ≥ 4e+09 M⁻¹

Source: US20190177434A1 (published 2019)
